Tests used:
[1] = molecular target: N130-V5 recombinant protein (NAC1 BTB domain only) (UniProt Q96RE7); assay: pull-down
[2] = molecular target: NAC1-V5 recombinant protein (UniProt Q96RE7); assay: pull-down

- Kd [1]: 520 nM
- Kd [2]: 780 nM
Substance: purified recombinant actin (Cytoskeleton Inc.) (from UniProt P60709 1-375) (natural protein)

Reference: publication PMC3421062
